Values quoted from earlier work, collected in paper PMC4698235.

Assays:
insulin (Homo sapiens) = insulin (Homo sapiens) (UniProt P01308)
IDE (Homo sapiens) = IDE (Homo sapiens) (UniProt P14735)

Sequence of UniProt P01308 (P01308 90-110): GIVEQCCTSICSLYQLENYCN

For IDE (from UniProt P14735), the Kd (insulin (Homo sapiens)) is listed as 10 nM and the Kd (IDE (Homo sapiens)) is listed as 10 nM.
